Source: patent US20260201029A1 (Janssen / Centocor, published 2026)
Like-named read-outs stand apart in the source and are kept apart here.

How the values were obtained:
[1] = target: T1, human GPRC5D (G-protein coupled receptor family C group 5 member D) (human, UniProt Q9NZD1 1-345); experiment: cell-based or functional assay
cynomolgus FcγRIIb = target: T2, cynomolgus FcγRIIb (cynomolgus); experiment: SPR, receptor captured by anti-his, antibody injected, steady-state fit
T2 construct: His-tagged (captured on anti-his surface); construct not described; also called cy-RIIb; FcgRIIb

human FcγRIIb/c = target: T3, human FcγRIIb/c (human, UniProt P31994 46-217, limits assumed); experiment: as above
T3 construct: His-tagged (captured on anti-his surface); construct not described; also called hu-RIIb/c; FcgRIIb
T3 sequence (looked up): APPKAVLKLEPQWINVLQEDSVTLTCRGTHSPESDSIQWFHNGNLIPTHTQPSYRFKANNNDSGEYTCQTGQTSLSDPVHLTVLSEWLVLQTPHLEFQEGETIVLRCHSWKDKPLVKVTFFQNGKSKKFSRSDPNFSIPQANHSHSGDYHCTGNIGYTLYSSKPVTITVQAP

cynomolgus FcγRIIa = target: T4, cynomolgus FcγRIIa (cynomolgus); experiment: as above
T4 construct: His-tagged (captured on anti-his surface); construct not described; also called cy-RIIa; FcgRIIa

human FcγRIIa = target: T5, human FcγRIIa (human, UniProt P12318 36-218, limits assumed); experiment: as above
T5 construct: His-tagged (captured on anti-his surface); construct and allele not described; also called hu-RIIa; FcgRIIa
T5 sequence (looked up): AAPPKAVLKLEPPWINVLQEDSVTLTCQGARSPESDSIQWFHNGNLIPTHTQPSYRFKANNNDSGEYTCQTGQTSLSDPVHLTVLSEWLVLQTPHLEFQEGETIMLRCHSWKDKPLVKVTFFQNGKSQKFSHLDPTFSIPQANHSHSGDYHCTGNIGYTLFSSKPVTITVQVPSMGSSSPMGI

human GPRC5D nanodisc [2] = target: T6, human GPRC5D nanodisc (human, UniProt Q9NZD1 1-345); experiment: SPR, antibody captured by anti-human Fc, GPRC5D-nanodisc injected, 1:1 fit
T6 construct: Bought reagent; also called GPRC5D-nanodiscs (Acro, #GPD-H52D4)

human GPRC5D nanodisc [3] = target: T6, human GPRC5D nanodisc; experiment: as above; remark: listed apart in the source
cyno GPRC5D nanodisc = cyno GPRC5D nanodisc (cynomolgus monkey); experiment: as above
[4] = target: T1, human GPRC5D (G-protein coupled …); experiment: cell-based or functional assay; remark: listed apart in the source
cynomolgus FcγRIII = target: T7, cynomolgus FcγRIII (cynomolgus, UniProt Q8SPW2 17-208, limits assumed); experiment: SPR, receptor captured by anti-his, antibody injected, 1:1 fit
T7 construct: His-tagged (captured on anti-his surface); construct not described; also called cy-RIII; FcgRIII

human FcγRI = target: T8, human FcγRI (human, UniProt P12314 16-288, limits assumed); experiment: as above
T8 construct: His-tagged (captured on anti-his surface); construct not described; also called hu-RI; FcgRI

[5] = target: T9, human FcγRIIIa 158F allele (human, UniProt P08637 17-208); experiment: as above
T9 construct: His-tagged (captured on anti-his surface); construct not described; also called Hu-RIIIaF; FcgRIIIa

cynomolgus FcγRI = target: T10, cynomolgus FcγRI (cynomolgus); experiment: as above
T10 construct: His-tagged (captured on anti-his surface); construct not described; also called cy-RI; FcgRI

[6] = target: T11, human FcγRIIIa 158V allele (human, UniProt P08637 17-208); experiment: as above
T11 construct: His-tagged (captured on anti-his surface); construct not described; The 158V allele differs from the 158F allele at that one position; also called Hu-RIIIa V; Hu-RIIIaV

[7] = target: T1, human GPRC5D (G-protein coupled …); experiment: flow cytometry on H929 cells
[8] = target: T1, human GPRC5D (G-protein coupled …); experiment: flow cytometry on MM1.R cells

T8 sequence (P12314 16-288 limits assumed): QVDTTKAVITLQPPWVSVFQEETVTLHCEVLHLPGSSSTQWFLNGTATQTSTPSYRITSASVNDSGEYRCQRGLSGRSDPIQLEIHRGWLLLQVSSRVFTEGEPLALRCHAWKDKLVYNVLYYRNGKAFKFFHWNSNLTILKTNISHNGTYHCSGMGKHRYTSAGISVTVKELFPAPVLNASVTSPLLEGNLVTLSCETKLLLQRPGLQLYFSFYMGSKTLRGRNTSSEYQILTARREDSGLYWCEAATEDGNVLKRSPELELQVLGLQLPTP
T7 sequence (Q8SPW2 17-208 limits assumed): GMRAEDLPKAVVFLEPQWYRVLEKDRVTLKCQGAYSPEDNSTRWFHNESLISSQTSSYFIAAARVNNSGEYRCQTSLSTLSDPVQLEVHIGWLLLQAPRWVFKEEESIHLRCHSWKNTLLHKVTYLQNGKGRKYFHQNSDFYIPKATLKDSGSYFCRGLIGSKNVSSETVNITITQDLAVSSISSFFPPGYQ
T6 sequence (Q9NZD1 whole entry): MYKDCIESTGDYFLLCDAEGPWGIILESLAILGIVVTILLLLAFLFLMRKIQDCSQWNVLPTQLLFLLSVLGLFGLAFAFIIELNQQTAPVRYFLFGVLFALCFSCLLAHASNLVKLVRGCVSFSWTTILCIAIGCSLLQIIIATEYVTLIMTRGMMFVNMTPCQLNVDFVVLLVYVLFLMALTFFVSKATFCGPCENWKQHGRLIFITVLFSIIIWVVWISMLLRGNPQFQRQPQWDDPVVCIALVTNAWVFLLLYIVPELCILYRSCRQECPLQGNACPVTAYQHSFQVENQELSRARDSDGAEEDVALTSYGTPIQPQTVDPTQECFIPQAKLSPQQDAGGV
T1 sequence (Q9NZD1 whole entry): as above
T11 sequence (P08637 17-208 F176V limits assumed): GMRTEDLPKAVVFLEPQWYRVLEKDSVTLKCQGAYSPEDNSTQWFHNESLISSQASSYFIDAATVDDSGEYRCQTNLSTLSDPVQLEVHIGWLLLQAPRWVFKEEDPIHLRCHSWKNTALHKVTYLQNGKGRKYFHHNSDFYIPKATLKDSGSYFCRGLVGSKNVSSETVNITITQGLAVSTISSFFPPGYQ
T9 sequence (P08637 17-208 limits assumed): as the sequence (P08637 17-208 F176V limits assumed) above, with V160F counted along it

B1: GC5B1552.AFU (antibody, human IgG1, kappa)
chain: DKTHTCPPCPAPELLGGPSVFLFPPKPEDTLMISRTPEVTCVVVDVSHEDPEVKFNWYVDGVEVHNAKTKPREEQYNSTYRVVSVLTVLHQDWLNGKEYKCKVSNKALPAPIEKTISKAKGQPREPQVYTLPPSREEMTKNQVSLWCLVKGFYPSDIAVEWESNGQPENNYKTTPPVLDSDGSFFLYSKLTVDKSRWQQGNVFSCSVMHEALHNHYRQKSLSLSPGK
heavy: not shown
light: DIQMTQSPSSLSASVGDRVTITCRASQGIRNDLGWYQQKPGKAPKRLIYAASSLQSGVPSRFSGSGSGTEFTLTISSLQPEDFATYYCLQRNTYPLTFGGGTKVEIKRTVAAPSVFIFPPSDEQLKSGTASVVCLLNNFYPREAKVQWKVDNALQSGNSQESVTEQDSKDSTYSLSSTLTLSKADYEKHKVYACEVTHQGLSSPVTKSFNRGEC
notes: expressed in a FUT8 knockout CHO host, so the Fc glycan is afucosylated; also called GC5B1552.AFU.003; GC5B1552.AFU.001
ADCC EC50, AMO-1 cells, primary healthy donor human NK cells [1]: 1.2 nM
ADCC EC50, H929 cells, primary healthy donor human NK cells [1]: 0.04 nM
ADCC EC50, MM.1R cells, primary healthy donor human NK cells [1]: 0.005 nM
ADCP EC50, H929 cells, M1-macrophages [1]: 0.05 nM
ADCP EC50, MM.1R cells, M1-macrophages [1]: 0.05 nM
CDC EC50, AMO-1 cells, CellTiter-Glo, 40% human serum [1]: 35.3 nM
CDC EC50, JIM-3 cells, CellTiter-Glo, 40% human serum [1]: 13.1 nM
CDC EC50, MM.1R cells, CellTiter-Glo, 40% human serum [1]: 8.77 nM
Fold increase in binding (vs wt IgG1 control) (cynomolgus FcγRIIb): 0.8 fold
Kd (cynomolgus FcγRIIb): 5400 nM
Fold increase in binding (vs wt IgG1 control) (human FcγRIIb/c): 1 fold
Kd (human FcγRIIb/c): 11600 nM
Fold increase in binding (vs wt IgG1 control) (cynomolgus FcγRIIa): 0.9 fold
Kd (cynomolgus FcγRIIa): 8820 nM
Fold increase in binding (vs wt IgG1 control) (human FcγRIIa): 2.5 fold
Kd (human FcγRIIa): 3710 nM
Kd (human GPRC5D nanodisc [2]): 84 nM
koff (human GPRC5D nanodisc [2]): 0.00148 s⁻¹
kon (human GPRC5D nanodisc [2]): 18000 M⁻¹ s⁻¹
Kd (human GPRC5D nanodisc [3]): 77 nM
koff (human GPRC5D nanodisc [3]): 0.00169 s⁻¹
kon (human GPRC5D nanodisc [3]): 22000 M⁻¹ s⁻¹
Kd (cyno GPRC5D nanodisc): 1880 nM
koff (cyno GPRC5D nanodisc): 0.0179 s⁻¹
kon (cyno GPRC5D nanodisc): 9520 M⁻¹ s⁻¹
ADCC EC50 (nM), CD138+ MM patient plasma cells, Sample 1 [4]: 0.007 nM
ADCC EC50 (nM), CD138+ MM patient plasma cells, Sample 2 [4]: 0.09 nM
ADCC EC50 (nM), CD138+ MM patient plasma cells, Sample 6 [4]: 0.04 nM
ADCC EC50 (nM), CD138+ MM patient plasma cells, Sample 17 [4]: 0.64 nM
CDC EC50 (nM), CD138+ MM patient plasma cells, Sample 6 [4]: 40.5 nM
CDC EC50 (nM), CD138+ MM patient plasma cells, Sample 17 [4]: 35.5 nM
Fold increase in binding (vs wt IgG1 control) (cynomolgus FcγRIII): 33.2 fold
Kd (cynomolgus FcγRIII): 11.9 nM
koff (cynomolgus FcγRIII): 0.034 s⁻¹
kon (cynomolgus FcγRIII): 2.86e+06 M⁻¹ s⁻¹
Fold increase in binding (vs wt IgG1 control) (human FcγRI): 2.2 fold
Kd (human FcγRI): 1.3 nM
koff (human FcγRI): 0.000738 s⁻¹
kon (human FcγRI): 567000 M⁻¹ s⁻¹
Fold increase in binding (vs wt IgG1 control) [5]: 50.7 fold
Kd [5]: 75 nM
koff [5]: 0.167 s⁻¹
kon [5]: 2.24e+06 M⁻¹ s⁻¹
Fold increase in binding (vs wt IgG1 control) (cynomolgus FcγRI): 1.5 fold
Kd (cynomolgus FcγRI): 1 nM
koff (cynomolgus FcγRI): 0.000659 s⁻¹
kon (cynomolgus FcγRI): 647000 M⁻¹ s⁻¹
Fold increase in binding (vs wt IgG1 control) [6]: 111 fold
Kd [6]: 8.1 nM
koff [6]: 0.0232 s⁻¹
kon [6]: 2.85e+06 M⁻¹ s⁻¹

B2: GC5B1552 (antibody)
chain: B1 chain
heavy: not shown
light: B1 light
notes: Monovalent JAWA (K248E/T437R) antibody as named without the .AFU suffix
EC50 [7]: 1.3 nM
EC50 [8]: 3.2 nM
